Among the data in patent publication US20250043313 are activity values, retold here.

In this data set the target is SuperFi-Cas9 (7-D Cas9) 7-D: seven RuvC loop residues shown in FIG. 4b each mutated to Asp (individual residues not listed in text) (Streptococcus pyogenes) (UniProt Q99ZW2). As to the kind of experiment: cleavage_in_vitro. As to conditions: PAM TGG, 10 mM Mg2+, 37 C.

Under “kobs +/- 0.0002, amplitude 8.4 nM, 500-fold slower than on-target”, “GACGCAUAAAGAUGAGACGC / AGCTGACGTTTGTACTCCAGCGTCTCATCTTTATGCCAGAGCAGAGATTTCTGCT / AGCAGAAATCTCTGCTCTGGCATAAAGATGAGACGCTGGAGTACAAACGTCAGCT [sgRNA ; 18-20 MM DNA]” came in with an activity of 0.004 s⁻¹. Where the note is “kobs +/- 0.1, amplitude 7.7 nM, 6.3-fold preference over 18-20 MM in competition”, “GACGCAUAAAGAUGAGACGC / AGCTGACGTTTGTACTCCAGCGTCTCATCTTTATGCGTCAGCAGAGATTTCTGCT / AGCAGAAATCTCTGCTGACGCATAAAGATGAGACGCTGGAGTACAAACGTCAGCT [sgRNA ; On-target DNA]” displayed an activity of 2 s⁻¹.
